# Measured values reported in US20030027314.
# Columns and labels:
# [1] = thermal melting curve, homodimer (FIG. 3)
# [2] = CD thermal melt, homodimer, low salt (50 mM KCl)
# [3] = CD thermal melt, homodimer
# [4] = CD thermal melt, homodimer, 150 mM KCl
# [5] = thermal melting curve, homodimer (FIG. 3); remark: listed apart in the source
# [6] = thermal melting curve, homodimer (FIG. 4)
# [7] = thermal melting curve, homodimer (FIG. 4); remark: listed apart in the source
protein,measurement,setting,value
4heptadCREB (CREB with 4 heptad repeats appended at the amino terminus) (protein) ASMTGGQQMGRDPDLEQRAEELARENEELEKEAEELEQENAELENRVAVLENQNKTLIEELKALKDLYCHKSD,Tm,[1],(4heptadCREB homodimerization) is 22 °C
C/EBP bZIP domain (chimeric GCN4-C/EBP protein) (protein) SEYQPSLFALNPMGFSPLDGSKSTNENVSASTSTAKPMVGQLIFDKFIKTEEDPGKAKKSVDKNSNEYRVRRERNNIAVRKSRDKAKQRNVETQQKVLELTSDNDRLRKRVEQLSRELDTLRGIFRQLPESSLVKAMGNCA,Tm,[2],45.8 °C
same,fall of Tm in 50 mM KCl against 150 mM KCl,[3],less stable by 4 °C in 50 mM KCl compared with 150 mM KCl
same,Tm,[4],49.5 °C
"CREB (unmodified) (protein, from a related filing) MASSPALPTQPAEEAARKREVRLMKNREAARECRRKKKEYVKCLENRVAVLENQNKTLIEELKALKDLYCHKSD",Tm,[5],the melting temperature of unmodified CREB homodimerization is 47 °C
1heptad-F (protein) ASMTGGQQMGRDPGGGLEQENAELEQEVLELESRNDRLRKEVEQLERELDTLRGIFRQLPESSLVKAMGNCA,Tm,[4],29 °C
"c-Jun (unmodified) (protein, from a related filing) PLSPIDMESQERIKAERKRMRNRIAASKCRKRKLERIARLEEKVKTLKAQNSELASTANMLREQVAQLKQKVMNHVNSGCQLMLTQQLQTF",Tm,[6],homodimerization of unmodified c-Jun had a melting temperature of 29.4 °C
4heptad-F (protein) ASMTGGQQMGRDPGGGLEQRAEELARENEELEKEAEELEQENAELEQEVLELESRNDRLRKEVEQLERELDTLRGIFRQLPESSLVKAMGNCA,Tm,[4],15.2 °C
GBF-C/EBP chimeric protein (GBF basic region on the C/EBP leucine zipper) (protein) PVKDERELKRQKRKQSNRESARRSRLRNEAECEQTQQKVLELTSDNDRLRKRVEQLSRELDTLRGIFRQLPESSLVKAMGNCA,difference of homodimer Tm from C/EBP,[3],as homodimers showed a Tm within 1 °C of C/EBP
same,Tm,[4],50.2 °C
VBP-C/EBP chimeric protein (VBP basic region on the C/EBP leucine zipper) (protein) ASMTGGQQMGRDPLEEKVFVPDEQKDEKYWTRRKKNNVAAKRSRDARRLKENQTQQKVLELTSDNDRLRKRVEQLSRELDTLRGIFRQLPESSLVKAMGNCA,difference of homodimer Tm from C/EBP,[3],as homodimers showed a Tm within 1 °C of C/EBP
same,Tm,[4],50 °C
4heptad-Fos (c-Fos with the basic region replaced by four acidic heptad repeats) (protein) MASMTGGQQMGRDPDLEQRAEELARENEELEKEAEELEQENAELEAETDQLEDEKSALQTEIANLLKEKEKLEFILAAHRPACKIP,Tm,[7],homodimerization of acidically modified c-Fos ... had a melting temperature of 25 °C
0heptad-F (F zipper with the basic region deleted) (protein) ASMTGGQQMGRDPGGGTQQEVLELESRNDRLRKEVEQLERELDTLRGIFRQLPESSLVKAMGNCA,Tm,[4],30 °C
3heptad-F (protein) ASMTGGQQMGRDPGGGLARENEELEKEAEELEQENAELEQEVLELESRNDRLRKEVEQLERELDTLRGIFRQLPESSLVKAMGNCA,Tm,[4],28.3 °C
2heptad-F (protein) ASMTGGQQMGRDPGGGLEKEAEELEQENAELEQEVLELESRNDRLRKEVEQLERELDTLRGIFRQLPESSLVKAMGNCA,Tm,[4],24.8 °C
